Experimental data as given in article PMC2100151.

Biological target: Human ASK1 catalytic (kinase) domain, T813A mutant (human) (UniProt Q99683)
Assay: AUC; sedimentation velocity; 13 μM protein in 10 mM HEPES pH 7.4, 120 mM NaCl, 0.25% glycerol, 4°C, 40,000 rpm; c(s) and c(M) distributions (SEDFIT)

Human ASK1 catalytic (kinase) domain, T813A mutant (from UniProt Q99683 659-951) (domain or fragment)
stoichiometry N: 2
